Values of other authors, collected in patent publication US20060003347A1 (priority 2002, published 2006).

Legend:
[1] = pH 8.5
[2] = literature

Row | Compound | Rate of base-catalysed hydrolysis [1] | kcat [2]
1 | CCOP(=O)(OCC)Oc1ccc([N+](=O)[O-])cc1 [paraoxon] | 2.4e-07 s⁻¹ | –
2 | acetylcholinesterase | – | 14000 s⁻¹
3 | catalase | – | 4e+07 s⁻¹
